Here are results for six sequences from a protein production outcome set (Wang et al. 2014).

A short description of the series: label from the status in PepcDB records.
For the sequence “MRASKASADESLNVFPVPADSPGSPIAGANGVPKEISLPGEARPFHLANSAFWPYVLLFVSSLTLSGCAGMVDMVRDVTRSLADIDVSGITDLFGSGEVQMSPEQIAQLEVIPSTRPGWEASVEESPAAVFLPVFGDGAVYAGGPDGRLVRFDPASGKASGVIDTKHPLAGGIGTGDGMLLVGTFKGEVLAFDEKSGKPKWTANLSTEVLSPPHAGMGVVVVRTGDGRIYGLDSESGKRKWVYQGATPSLTVRSFAGALIADDRVYAGFAGGRLVALNLSNGSLVWEAMVSRPRGATELERISDVTSLPVLDEQQVCAVAYQGRIACFDITAGNQIWTRDVSSNAGLAMDDNYVYVSENRGGIVAYDKRDGTSIWAQDLLNGLKLSAPLVHGARIVVGDSQGYVNFIRKDNGAIIARSGTDESAITARPISLPNGIAVQTRKGGVFAFGA”, the protein production entry was “failed”.

As to “MRAYQIMSRQVVSIRPEAPITDAIKVMLAHHISGLPVVDSADNLVGIICESDFLRRSEIGTEHERNRLLSLLLGAERVASEFVKERGRKVEQVMTRQPVTTNEQAPLDEVADVMERRHLNHIPVMRADRIVGIITRSDFLSAVAGPLTGASGYSGSDNQLRRAVLAALAKTPWQPIGLNVRVRDGAVSLRGVIRGESAHRAAIVACENVPGVLRVDDRLCVQPSRPDPEDDYGGGDFVSLQMEPSTLDDEPL”, the protein production entry was “failed”.

Consider “MRDGVSPEQPKVSVIMPVRDGERWVAEAIRSVQSQTFRDFELLVIDDGSADATPAILAEAAAADPRIFVLTQHRDGLVAGLNRGLAAARAPLIARLDADDIALPDRLARQVDYMTTHPAVVLLGGWATIVDENGQPKGRDMRPNPNDLRATLMKKSPFIHPTVMFRAEAARRVGGYHAAFEAGEDYDFWLRLADIGEVAILPELLIRYREHSASVTRTRQLRQIYSARLAKLAAAARQAGQPDPSAPLTTPPDWHDASPGPFERDSSRLFRMLELADPAVAARIAPSAIDLNAITSQLGTLTAGERKFAQAALLNLLRANKLPSLAARWSAVFLLVRLGPLKAIKAARQLRNR”, for which the protein production entry is reported as “failed”.

Take “MRDLVSCFSENSINVTHPLSISSSSSSCSKYSTNNVCISPSLIPSIQTSITSIYRITLSKHLIIKVTWCNPHNNNGLSISVASADQNPSTTLKLNTSSRFFRKKKGNKSVDSDLGKIEVFWDLSSAKYDSNLCGPEPINGFYVIVLVDGQMGLLLGDSSEETLRKKGFSGDIGFDFSLVSRQEHFTGNNTFYSTKVRFVETGDSHEIVIRCNKETEGLKQSNHYPVLSVCIDKKTVIKVKRLQWNFRGNQTIFLDGLLVDLMWDVHDWFFSNQGACGRAVFMFRTRNGLDSSRLWLEEKIVKKDQQDKLDFSLFIYACKT”: the protein production entry is recorded as “failed”.

With “MRDRVRWRVLSLPPLAQWREVMAALEVGPEAALAYWHRGFRRKEDLDPPLALLPLKGLREAAALLEEALRQGKRIRVHGDYDADGLTGTAILVRGLAALGADVHPFIPHRLEEGYGVLMERVPEHLEASDLFLTVDCGITNHAELRELLENGVEVIVTDHHTPGKTPPPGLVVHPALTPDLKEKPTGAGVAFLLLWALHERLGLPPPLEYADLAAVGTIADVAPLWGWNRALVKEGLARIPASSWVGLRLLAEAVGYTGKAVEVAFRIAPRINAASRLGEAEKALRLLLTDDAAEAQALVGELHRLNARRQTLEEAMLRKLLPQADPEAKAIVLLDPEGHPGVMGIVASRILEATLRPVFLVAQGKGTVRSLAPISAVEALRSAEDLLLRYGGHKEAAGFAMDEALFPAFKARVEAYAARFPDPVREVALLDLLPEPGLLPQVFRELALLEPYGEGNPEPLFLLFGAPEEARRLGEGRHLAFRLKGVRVLAWKQGDLALPPEVEVAGLLSENAWNGHLAYEVQAVDLRKPEALEGGIAPFAYPLPLLEALARARLGEGVYVPEDNPEGLDYARKAGFRLLPPEEAGLWLGLPPRPVLGRRVEVALGREARARLSAPPVLHTPEARLKALVHRRLLFAYERRHPGLFSEALLAYWEVNRVQEPAGSP”, the protein production entry is reported as “not failed”.

In the case of “MRDTLPEWYKTKKNICDQMTEEINLWGYDMIETPTLEYYETVGVVSAILDQQLFKLLDQQGNTLVLRPDMTAPIARLVASSLKDRAYPLRLAYQSNVYRAQQNEGGKPAEFEQLGVELIGDGTASADGEVIALMIAALKRAGLSEFKVAIGHVGYVNALLMDVVGNEQRADRLRRFLYEKNYVGYREHVKSLNLSTIDKSRLMNLLSLRGGRAAIEEARGLIQTEKGKTALAEMTKLYEVLESYGASEYVKFDLTLVLHMSYYTGVVFEGYGNRLGVPLCSGGRYDELLSKFHRPAQATGFGVRIDLLVEALNGEIISN”, the protein production result is “not failed”.
